Substrate in series [1]: CC(C)=CCC[C@]1(C)C=Cc2c(O)c3c(c(CC=C(C)C)c2O1)O[C@]12C(=C[C@@H]4C[C@H]1C(C)(C)O[C@@]2(C/C=C(/C)C(=O)O)C4=O)C3=O
To be noted: Homo sapiens; 49.6 uM.
Description: Competitive inhibition of recombinant human PTP1B (1 to 322 residues) expressed in Escherichia coli assessed as substrate Km at 49.6 uM using pNPP as substrate by Lineweaver-Burk plot analysis

Substrate in series [2]: CC(C)=CCC[C@]1(C)C=Cc2c(O)c3c(c(CC=C(C)C)c2O1)O[C@]12C(=C[C@@H]4C[C@H]1C(C)(C)O[C@@]2(C/C=C(/C)C(=O)O)C4=O)C3=O
The following applies: Homo sapiens; 49.6 uM. This is another data set of the same source.

Substrate in series [3]: CC(C)=CCC[C@]1(C)C=Cc2c(O)c3c(c(CC=C(C)C)c2O1)O[C@]12C(=C[C@@H]4C[C@H]1C(C)(C)O[C@@]2(C/C=C(/C)C(=O)O)C4=O)C3=O
To be noted: Homo sapiens; 12.4 uM.

Substrate in series [4]: CC(C)=CCC[C@]1(C)C=Cc2c(O)c3c(c(CC=C(C)C)c2O1)O[C@]12C(=C[C@@H]4C[C@H]1C(C)(C)O[C@@]2(C/C=C(/C)C(=O)O)C4=O)C3=O
To be noted: Homo sapiens; 12.4 uM. This is another data set of the same source.
Description: Competitive inhibition of recombinant human PTP1B (1 to 322 residues) expressed in Escherichia coli assessed as substrate Km at 12.4 uM using pNPP as substrate by Lineweaver-Burk plot analysis

Substrate in series [5]: CC(C)=CCC[C@]1(C)C=Cc2c(O)c3c(c(CC=C(C)C)c2O1)O[C@]12C(=C[C@@H]4C[C@H]1C(C)(C)O[C@@]2(C/C=C(/C)C(=O)O)C4=O)C3=O
To be noted: Homo sapiens; 24.8 uM.
Description: Competitive inhibition of recombinant human PTP1B (1 to 322 residues) expressed in Escherichia coli assessed as substrate Km at 24.8 uM using pNPP as substrate by Lineweaver-Burk plot analysis

Substrate in series [6]: CC(C)=CCC[C@]1(C)C=Cc2c(O)c3c(c(CC=C(C)C)c2O1)O[C@]12C(=C[C@@H]4C[C@H]1C(C)(C)O[C@@]2(C/C=C(/C)C(=O)O)C4=O)C3=O
To be noted: Homo sapiens; 24.8 uM. The source holds these as a separate data set.

Consider one protein from ChEMBL document CHEMBL4038281, “Competitive protein tyrosine phosphatase 1B (PTP1B) inhibitors, prenylated caged xanthones from Garcinia hanburyi and their inhibitory mechanism” (Bioorg Med Chem, 2017).

B1: Tyrosine-protein phosphatase non-receptor type 1 (Homo sapiens), P18031 (protein)
chain: MEMEKEFEQIDKSGSWAAIYQDIRHEASDFPCRVAKLPKNKNRNRYRDVSPFDHSRIKLHQEDNDYINASLIKMEEAQRSYILTQGPLPNTCGHFWEMVWEQKSRGVVMLNRVMEKGSLKCAQYWPQKEEKEMIFEDTNLKLTLISEDIKSYYTVRQLELENLTTQETREILHFHYTTWPDFGVPESPASFLNFLFKVRESGSLSPEHGPVVVHCSAGIGRSGTFCLADTCLLLMDKRKDPSSVDIKKVLLEMRKFRMGLIQTADQLRFSYLAVIEGAKFIMGDSSVQDQWKELSHEDLEPPPEHIPPPPRPPKRILEPHNGKCREFFPNHQWVKEETQEDKDCPIKEEKGSPLNAAPYGIESMSQDTEVRSRVVGGSLRGAQAASPAKGEPSLPEKDEDHALSYWKPFLVNMCVATVLTAGAYLCYRFLFNSNT
For the protein B1, the Km (usually the concentration of substrate that gives half-maximal velocity) was determined as 12.7 mM in series [1], 4.46 mM in series [4] and 6.84 mM in series [5]. Moreover, the Vmax (optical density/minute) in series [2] was found to be 13.7; in series [3], 12.6; in series [6], 12.9.
